Molecular target: growth hormone (GH) receptor (mouse) (UniProt P16882)
Test: cell-based or functional assay

- GH receptor mRNA expression levels in the liver (quantitative RT-PCR), 60 minutes after 30 µg subcutaneous rGH (% of level prior to administration): 65
- IGF-I-BP3 mRNA expression levels in the liver (quantitative RT-PCR, % of control), 60 minutes after 30 µg subcutaneous rGH: 250 % increase
Substance: recombinant rat growth hormone (from UniProt P01244 27-216) (ligand)
